In article PMC8121154, “The effects of pH and NaCl concentration on the structure of β‐casein from buffalo milk” (Food Science & Nutrition, 2021):

Target: the molecule itself
Assay: dynamic light scattering; purified β‐CN in 10 mM sodium phosphate buffer at pH 5.5 and pH 5.0, room temperature; aggregates, micelles of 100 nm at pH 5.0

B1: native β‐casein purified from buffalo milk (natural protein, buffalo (purified from buffalo milk), UniProt Q9TSI0 16-224, looked up)
chain: RELEELNVPGEIVESLSSSEESITHINKKIEKFQSEEQQQMEDELQDKIHPFAQTQSLVYPFPGPIPKSLPQNIPPLTQTPVVVPPFLQPEIMGVSKVKEAMAPKHKEMPFPKYPVEPFTESQSLTLTDVENLHLPLPLLQSWMHQPPQPLPPTVMFPPQSVLSLSQSKVLPVPQKAVPYPQRDMPIQAFLLYQEPVLGPVRGPFPIIV
notes: β‐casein of buffalo milk (water buffalo), native protein purified from milk; single band of approximately 25 kDa on SDS-PAGE; Native milk protein; also called β‐CN; buffalo β‐CN
- binding result: binds
